Values quoted from earlier work in article PMC6551275.

Target: UBQLN2 UBA (Homo sapiens) (UniProt Q9UHD9)
Sequence (Q9UHD9 578-624): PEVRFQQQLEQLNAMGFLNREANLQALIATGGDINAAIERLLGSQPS

UBQLN2 UBL, sequence (Q9UHD9 33-107): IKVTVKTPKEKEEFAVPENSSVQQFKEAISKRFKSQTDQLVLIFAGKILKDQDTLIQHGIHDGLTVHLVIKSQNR

In the case of UBQLN2 UBL (from UniProt Q9UHD9), the Kd is given as 175 µM.
